Assay results as given in patent US20210187120A1 (WISCONSIN ALUMNI RESEARCH FOUNDATION, published 2021).
Values belong to the binder of their own block, whether it stands above or below them. No end group written: not given here.

Assays:
[1] = target: T1, PD-L1 on 786-O cells (PD-L1 overexpressing human renal cell carcinoma line) and MCF-7 cells (low PD-L1) (human, UniProt Q9NZQ7 19-290); experiment: fluorescence microscopy (rhodamine), cells treated for 1 h
T1 construct: whole, on cells; also called PD-L1 molecules on tumor cells
T1 sequence (Q9NZQ7 19-290): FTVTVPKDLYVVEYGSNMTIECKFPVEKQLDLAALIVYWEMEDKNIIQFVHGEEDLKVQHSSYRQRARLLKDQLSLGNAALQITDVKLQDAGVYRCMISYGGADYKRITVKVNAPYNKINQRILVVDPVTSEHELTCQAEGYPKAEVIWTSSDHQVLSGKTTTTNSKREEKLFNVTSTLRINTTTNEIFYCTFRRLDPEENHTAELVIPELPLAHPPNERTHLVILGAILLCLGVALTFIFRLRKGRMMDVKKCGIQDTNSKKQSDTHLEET

[2] = target: T2, PD-L1 proteins (R&D systems) (UniProt Q9NZQ7 19-239, limits assumed); experiment: SPR (BIAcore X), PD-L1 immobilized on CM5 chip, four concentrations (17-42 µM by the legend)
T2 construct: Commercial recombinant PD-L1; It was immobilized on a CM5 chip for SPR and used in solution for the FP assay; also called immobilized PD-L1 proteins
T2 sequence (Q9NZQ7 19-239 limits assumed): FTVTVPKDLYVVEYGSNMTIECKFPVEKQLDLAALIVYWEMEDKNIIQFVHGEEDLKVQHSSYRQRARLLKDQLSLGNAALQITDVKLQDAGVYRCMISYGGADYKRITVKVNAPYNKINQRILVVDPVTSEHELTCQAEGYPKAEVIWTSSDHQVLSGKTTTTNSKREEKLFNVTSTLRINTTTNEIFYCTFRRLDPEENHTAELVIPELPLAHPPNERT
Method: (§1) Surface plasma resonance (SPR). SPR analysis was done using a BIAcore™ X (Pharmacia Biosensor AB, Uppsala, Sweden). In short, PD-L1 proteins (R&D systems) were immobilized onto carboxylated dextran-coated gold film surface of sensor chip (CM5 sensor chip, GE Healthcare) through EDC/NHS chemistry. 30 μL of sample solution was injected at a flow rate of […]. Sample solution was allowed to flow into both channels (channel 1 for reference, channel 2 with PD-L1), and the final SPR sensorgrams were obtained by subtracting the […].

[3] = target: T2, PD-L1 proteins (R&D systems); experiment: SPR (BIAcore X), PD-L1 immobilized on CM5 chip, four concentrations (45-270 nM by the legend)
Method: as §1

[4] = target: T2, PD-L1 proteins (R&D systems); experiment: SPR, PD-L1 immobilized on CM5 chip
Method: as §1

[5] = target: T1, PD-L1 on 786-O cells (PD-L1 …); experiment: cell-based or functional assay
[6] = target: T2, PD-L1 proteins (R&D systems); experiment: fluorescence polarization, fβH2_mt titrated with PD-L1 in PBS; the concentration varied is that of PD-L1
Method: Fluorescence polarization (FP) assay. FP assay in PBS was used the PD-L1 binding and competition assays (λex=480 nm; λem=535 nm). Fluorescence anisotropy measurements were performed at room temperature, in a 384-well plate, and using an Infinite® M1000 Pro microplate reader (Tecan). A fβH2_mt/PD-L1 complex was used for the FP competition assay after 30 min incubation time and titrated with the competitors.

B1: pL1TZ (Trp-Zip βH2 mutant peptide) (peptide)
peptide: HKVWHWESPSGQWDTWAA-NH2
notes: Free tryptophan-zipper peptide; also called pLiTZ
- binding result [1]: binds

Binder: HVVWHRESPSGQTDTKAA-NH2 (other, not fully specified, also called G7-βH2_mt conjugates; DPC) [G7-βH2_mt (βH2_mt peptides conjugated to 90% acetylated G7 PAMAM dendrimer)]
- Kd [3]: 2.75 nM
- koff [3]: 0.000693 s⁻¹
- kon [3]: 252000 M⁻¹ s⁻¹
- fold decrease of the dissociation rate constant (kd) compared to the free peptide [4]: ~180 times
- IL-2 secretion from Jurkat T cells co-cultured with 786-O cells, compared with the non-treated cancer cells [5]: 1.52 fold

Next, values leading:

- Kd [2]: 119000 nM
- koff [2]: 0.127 s⁻¹
B2: free βH2_mt peptide (peptide)
peptide: HVVWHRESPSGQTDTKAA-NH2
notes: also called H2_mt peptides; free peptides

- EC50 (read off the curve) [6]: ~300 nM
B3: fluorescein-conjugated βH2_mt (fβH2_mt) peptide (peptide)
peptide: HVVWHRESPSGQTDTKAA-NH2
modifications: also: fluorescein-conjugated, position not given here
notes: Tracer of the fluorescence polarization assay
